# Source: article doi:10.1101/2020.07.08.194100
# What was measured:
# [1] = molecular target: GST-RhoA^N19 (inactive RhoA) (UniProt P61586); experiment: pull-down
# [2] = molecular target: GST-RhoA^V14 (constitutively active RhoA) (UniProt P61586); experiment: pull-down
substance,measurement,setting,value
HA-tagged wild-type diacylglycerol kinase ζ (HA-DGKζ) (enzyme),fold change of binding after PMA against vehicle control,[1],2 fold
same,fold change of binding after PMA against vehicle control,[2],2 fold
